Measurements published in US20190002841A1.

Columns and labels:
[1] = target: AAV3B capsid (vector AAV2/3B.CB7.CI.ffluciferase.RBG) (Adeno-associated virus 3B); assay: AVB Sepharose HiTrap column, AAV3B against AAV3B-NKDKLN
[2] = target: AAV3B-NKDKLN capsid (AAV3B with SPAKFA replaced by NKDKLN of AAV9) (Adeno-associated virus 3B); assay: as above
[3] = target: AAV3B capsid (vector AAV2/3B.CB7.CI.ffluciferase.RBG) (Adeno-associated virus 3B); assay: AVB Sepharose HiTrap column, share washed off in wash 1
[4] = target: AAV3B-NKDKLN capsid (AAV3B with SPAKFA replaced by NKDKLN of AAV9) (Adeno-associated virus 3B); assay: as above
[5] = target: AAV3B capsid (vector AAV2/3B.CB7.CI.ffluciferase.RBG) (Adeno-associated virus 3B); assay: AVB Sepharose HiTrap column, unbound share in flow-through
[6] = target: AAV3B-NKDKLN capsid (AAV3B with SPAKFA replaced by NKDKLN of AAV9) (Adeno-associated virus 3B); assay: as above
[7] = target: AAVrh64R1 capsid (vectors AAV2/rh.64R1.CMV.PI.EGFP.WPRE.bGH and rh.64R1 with CB7.CI.ffluciferase.RBG) (Adeno-associated virus rh.64R1); assay: AVB Sepharose HiTrap column, qPCR of fractions; mix rh.64R1+rh.10
[8] = target: AAV3B capsid (vector AAV2/3B.CB7.CI.ffluciferase.RBG) (Adeno-associated virus 3B); assay: AVB Sepharose HiTrap column, share washed off in wash 2 (1 M NaCl)
[9] = target: AAV3B-NKDKLN capsid (AAV3B with SPAKFA replaced by NKDKLN of AAV9) (Adeno-associated virus 3B); assay: as above
[10] = target: AAVrh10 capsid (vector AAV2/rh.10.CMV.PI.Cre.RBG) (Adeno-associated virus rh.10); assay: AVB Sepharose HiTrap column, qPCR of fractions; average of two runs
[11] = target: AAV8 capsid (vectors AAV2/8.CMV.ffluciferase.SV40 and AAV8 with CB7.CI.ffluciferase.RBG) (Adeno-associated virus 8); assay: AVB Sepharose HiTrap column, qPCR of fractions; mix AAV8+hu.37+rh.10
[12] = target: AAVhu37 capsid (vector AAV2/hu.37.TBG.EGFP.bGH) (Adeno-associated virus hu.37); assay: as above
[13] = target: AAV3B capsid (vector AAV2/3B.CB7.CI.ffluciferase.RBG) (Adeno-associated virus 3B); assay: AVB Sepharose HiTrap column, qPCR of fractions; clarified AAV3B product
[14] = target: AAV8 capsid (vectors AAV2/8.CMV.ffluciferase.SV40 and AAV8 with CB7.CI.ffluciferase.RBG) (Adeno-associated virus 8); assay: AVB Sepharose HiTrap column, clarified supernatant, wild type against SPAKFA mutant
[15] = target: AAV8-SPAKFA capsid (AAV8 with NQSKLN replaced by SPAKFA) (Adeno-associated virus 8); assay: as above
[16] = target: AAV9 capsid (vector with CB7.CI.ffluciferase.RBG) (Adeno-associated virus 9); assay: as above
[17] = target: AAV9-SPAKFA capsid (AAV9 with NKDKLN replaced by SPAKFA) (Adeno-associated virus 9); assay: as above
[18] = target: AAVrh64R1 capsid (vectors AAV2/rh.64R1.CMV.PI.EGFP.WPRE.bGH and rh.64R1 with CB7.CI.ffluciferase.RBG) (Adeno-associated virus rh.64R1); assay: as above
[19] = target: rh.64R1-SPAKFA capsid (rh.64R1 with NQAKLN replaced by SPAKFA) (Adeno-associated virus rh.64R1); assay: as above

## AVB Sepharose High Performance affinity resin ligand (14 kD fragment from a single chain llama antibody expressed in yeast) (VHH)
[1]
  elution fraction yield (%): 98%
[2]
  elution fraction yield (%): 87%
[3]
  % of vector in the wash 1 (W1) fraction: 0%
[4]
  % of vector in the wash 1 (W1) fraction: 0.1%
[5]
  % of vector in the flow-through (FT) fraction: 1.3%
[6]
  % of vector in the flow-through (FT) fraction: 8.2%
[7]
  % of loaded vector genome in the elution fraction: 22%
[8]
  % of vector in the wash 2 (W2) fraction: 0.3%
[9]
  % of vector in the wash 2 (W2) fraction: 4.6%
[10]
  % of loaded vector genome in the elution fraction: 84%
[11]
  % of loaded vector genome in the elution fraction: 20%
[12]
  % of loaded vector genome in the elution fraction: 82%
[13]
  % of vector genomes recovered in the elution fraction: 98%
[14]
  % recovery of loaded vector in the elution fraction (of total fractions): 30%
[15]
  % recovery of loaded vector in the elution fraction (of total fractions): 93%
[16]
  % recovery of loaded vector in the elution fraction (of total fractions): 0.6%
[17]
  % recovery of loaded vector in the elution fraction (of total fractions): 51%
[18]
  % recovery of loaded vector in the elution fraction (of total fractions): 18%
[19]
  % recovery of loaded vector in the elution fraction (of total fractions): 91%
